Test results reported in patent US20210009693A1 (MABSPACE BIOSCIENCES SUZHOU, published 2021).

Columns and labels:
[1] = target: T1, Recombinant Human PD-L1/CD274 Protein (hPD-L1-his) (human, UniProt Q9NZQ7 19-238); assay: ELISA on coated hPD-L1-his
T1 construct: range 19-238; ACRO Biosystem PD1-H5229, made in HEK293; also called human PD-L1-his; hPD-L-his

[2] = target: T2, wild type human PD-L1-Fc protein (SEQ ID NO: 107) (human); assay: ELISA on captured PD-L1-Fc, as in Example 18A
T2 construct: Extracellular human PD-L1 (amino acid 19-238) with Fc fragment of human IgG1, expressed in 293T cells and used as culture supernatant; also called WT PD-L1; wild-type PD-L1
T2 sequence (chain, as listed by the source limits assumed): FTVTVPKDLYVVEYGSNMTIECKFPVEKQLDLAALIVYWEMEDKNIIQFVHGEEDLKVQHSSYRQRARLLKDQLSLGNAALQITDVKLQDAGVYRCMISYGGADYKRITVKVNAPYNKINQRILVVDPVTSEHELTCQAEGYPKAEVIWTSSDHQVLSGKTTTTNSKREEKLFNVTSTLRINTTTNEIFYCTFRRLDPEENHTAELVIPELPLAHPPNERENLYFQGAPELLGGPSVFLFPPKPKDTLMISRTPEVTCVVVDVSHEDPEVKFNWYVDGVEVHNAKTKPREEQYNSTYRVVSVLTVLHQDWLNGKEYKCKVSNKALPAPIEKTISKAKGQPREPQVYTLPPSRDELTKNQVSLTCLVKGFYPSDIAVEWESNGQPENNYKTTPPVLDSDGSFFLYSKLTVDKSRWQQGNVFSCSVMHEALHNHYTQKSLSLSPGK

[3] = target: T3, human PD-L1-Fc mutant E58A (human); assay: ELISA on captured PD-L1-Fc, as in Example 18A
T3 construct: Position 58 counts on native human PD-L1 (NP_054862.1); also called E58A mutant
T3 sequence (chain, as listed by the source E58A E58A limits assumed): as the sequence (chain, as listed by the source limits assumed) above, with E40A counted along it

[4] = target: hPD-L1 (antigen of the Biacore assay) (human, UniProt Q9NZQ7 19-238, limits assumed); assay: SPR (Biacore), antibody captured on anti-human Fc, antigen in flow
Chain of hPD-L1 (antigen of the Biacore assay) (Q9NZQ7 19-238 limits assumed): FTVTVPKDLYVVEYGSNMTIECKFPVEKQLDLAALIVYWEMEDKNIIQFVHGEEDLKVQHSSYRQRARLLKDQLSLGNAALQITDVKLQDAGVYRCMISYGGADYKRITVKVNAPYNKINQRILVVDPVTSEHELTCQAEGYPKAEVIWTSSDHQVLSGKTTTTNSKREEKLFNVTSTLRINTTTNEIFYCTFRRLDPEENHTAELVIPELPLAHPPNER
Procedure, shortened: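 Antibody captured to 200–300 RU on an anti-human Fc CM5 surface, with an uncaptured flow cell as reference; antigen injected at varying concentrations, 180 s association, in HBS-EP pH 7.4. Regeneration with glycine pH 1.5 for 120 s; reference-subtracted signals evaluated.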

[5] = target: T1, Recombinant Human PD-L1/CD274 Protein …; assay: ELISA, coated hPD-L1-his, acidic wash and incubation after binding at pH7.4
Protocol: (§1) The pH-dependent binding affinity was further measured at various pH values, such as pH4, pH4.5, pH5.0, pH5.5, pH6.0, pH7.4. The measurement by ELISA was conducted similarly to the method described above. High-binding clear polystyrene 96 well plates were coated with 100 μl/well of a 0.5 μg/ml hPD-L1-his in high pH coating buffer and incubated overnight at 4° C. Then the coated plates were washed 3 times with shaking for 10s on an automatic plate washer with PBS+0.1% Tween 20 (Amresco). Then 200 μl of blocking buffer (1% BSA (Solarbio)+1% normal goat serum (Solarbio)+0.05% Tween 20 (Amresco)) was added to each well and the plates were then incubated for 2 hours at room temperature and washed 3 times as above. […] The plates were then washed once with 250 μl/well washing buffer at pH7.4, pH6.0, pH5.5, pH5.0, pH4.5 or pH4.0 and then 100 μl/well pH7.4 or pH5.5 washing buffer was added and the incubation was continued for 2 hours at RT with shaking. Afterwards, the plates was washed 3 times washing buffer at pH7.4 and 100 μl/well of a solution of HRP conjugated goat anti-hIgG HRP antibody (1:20000, Abcam) in pH7.4 dilution buffer was then added to each well of the plate. After that the plates were allowed to incubate for 60 min at room temperature followed by washing 3 times with 250 μl/well pH7.4 washing buffer. Finally, 100 μl/well of TMB was added to each well for 15 min and the reaction was terminated using 50 μl/well of 0.16M/L sulfuric acid. The plates were read on a Thermo Multiscan FC at 450 nm (see FIG. 23A-23F). The measurements were performed in triplicate.

[6] = target: T1, Recombinant Human PD-L1/CD274 Protein …; assay: ELISA on coated hPD-L1-his; bound at pH7.4, then 2 h at pH7.4
Protocol: as §1

[7] = target: T1, Recombinant Human PD-L1/CD274 Protein …; assay: ELISA on coated hPD-L1-his; bound at pH7.4, then 2 h at pH5.5
Protocol: as §1, with “Finally, 100 μl/well of TMB was added to each well for 15 min and the reaction was terminated using 50 μl/well of 0.16M/L sulfuric acid.” left out, “The measurements were performed in triplicate.” left out

[8] = target: T4, human PD-L1 expressed on cells (human, UniProt Q9NZQ7 19-290); assay: blocking FACS on HCC827 cells; blocked ligand: biotinylated hPD-1-N297A
T4 construct: whole, on cells; also called hPD-L1 expressed on HCC827; hPD-L1 on MC38/hPD-L1 cells
T4 sequence (Q9NZQ7 19-290): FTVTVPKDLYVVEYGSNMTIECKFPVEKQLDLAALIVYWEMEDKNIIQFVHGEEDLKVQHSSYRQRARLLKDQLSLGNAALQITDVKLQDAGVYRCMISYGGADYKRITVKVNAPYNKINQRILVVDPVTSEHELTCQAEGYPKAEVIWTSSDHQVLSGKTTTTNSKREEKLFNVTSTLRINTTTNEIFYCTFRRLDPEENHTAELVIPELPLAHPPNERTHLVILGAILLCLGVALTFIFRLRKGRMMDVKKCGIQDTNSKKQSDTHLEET
Protocol: Log phase IFN-γ stimulated (500U/ml for 2 days) HCC827 cells were collected and resuspended in blocking buffer (5% BSA+PBS). 2×10\hat{ }5 cells were added to each tube and then washed once with PBS (1500 rpm, 5 mins, RT). […] After washing for three times with PBS, 100 μl/tube streptavidin-PE 1:200 in blocking buffer was added to each tube. The cells were incubated at 4° C. for 1 hr and then washed twice with PBS, followed by resuspending cells in 150 μl PBS for each sample. The cells were then transferred into FACS tube and the binding of the antibodies to the cells were detected with flow cytometry (ACEA Bioscience Novocyte) (see FIGS. 20A and 20B).

[9] = target: T5, Human PD-L1/CD274 with C-Fc Tag (hPD-L1-Fc) (human, UniProt Q9NZQ7 19-238); assay: blocking ELISA on coated hPD-L1-Fc; blocked ligand: biotinylated hPD-1-N297A
T5 construct: range 19-238; ACRO Biosystem PD1-H5258, made in HEK293; also called human PD-L1-Fc; not shown: Fc fragment of human IgG1 at C-terminus
T5 sequence (Q9NZQ7 19-238 limits assumed): as the sequence (Q9NZQ7 19-238 limits assumed) above

[10] = target: T4, human PD-L1 expressed on cells; assay: flow cytometry (relative mean fluorescence) on human peripheral blood cells activated 3 days with anti-CD3 and anti-CD28; detection with anti-human IgG-APC
[11] = target: T2, wild type human PD-L1-Fc protein (SEQ …); assay: ELISA on hPD-L1-Fc captured from 293T supernatant, 0.5 ug/ml antibody
[12] = target: T5, Human PD-L1/CD274 with C-Fc Tag …; assay: blocking ELISA on coated hPD-L1-Fc; blocked ligand: biotinylated hPD-1-Fc-N297A
Protocol: High-binding clear polystyrene 96 well plates (Nunc) were coated with 100 μl/well of coating solution consisting of 0.5 μg/ml hPD-L1-Fc overnight at 4° C. Then washed once on an automatic plate washer using washing buffer PBS+0.1% Tween 20 (Sigma). 200 μl of blocking buffer (PBS+1% BSA+1% normal goat serum+0.05% Tween-20) was added to each well and incubated for 2 hours at room temperature. Then add serial diluted antibodies (from 10 μg/ml to 0.0006 μg/ml) with dilution buffer (PBS+1% BSA+1% normal goat serum+0.01% Tween-20) and incubate for 1 hour at RT. The plates were then washed 3 times using the method described above. […] After the plates were washed 3 times, 100 μl/well of a solution of HRP conjugated Neutravidin antibody (Pierce) diluted in dilution buffer was then added to each well of the plate. After that the ELISA plates were allowed to incubate for 60 min at RT then plates were washed 3 times with 250 μl/well washing buffer. Finally, 100 μl/well of TMB was added to each well and reaction was terminated using 0.64M H₂SO₄. The plates were read on a Thermo Multiscan FC at 450 nM (see FIG. 4A).

[13] = target: T6, Recombinant Mouse PD-L1/CD274 Protein (mPD-L1-his) (mouse, UniProt Q9EP73 19-238); assay: ELISA, 20 ug/ml antibody on coated mouse PD-L1 (his-tagged per text, mPD-L1-Fc per sheet title)
T6 construct: range 19-238; ACRO Biosystem PD1-M5220; also called mouse PD-L1-his
T6 sequence (Q9EP73 other isoform, or with tags, fused parts or gaps limits assumed): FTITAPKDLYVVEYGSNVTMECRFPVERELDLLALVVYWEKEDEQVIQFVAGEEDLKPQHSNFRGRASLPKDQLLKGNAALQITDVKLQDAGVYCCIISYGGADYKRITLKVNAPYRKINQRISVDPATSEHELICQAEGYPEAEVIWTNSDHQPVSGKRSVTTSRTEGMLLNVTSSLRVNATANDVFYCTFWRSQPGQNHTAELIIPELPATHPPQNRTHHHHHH
Procedure, shortened: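 Wells coated overnight at 4 °C with 1 μg/ml mouse PD-L1-his, blocked 2 h with BSA/goat serum buffer; purified hybridoma mouse antibodies at 20 μg/ml bound 1 h at RT. Detection by HRP goat anti-mouse Fc (60 min, RT), TMB, acid stop, absorbance at 450 nm.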

T1 sequence (Q9NZQ7 other isoform, or with tags, fused parts or gaps limits assumed): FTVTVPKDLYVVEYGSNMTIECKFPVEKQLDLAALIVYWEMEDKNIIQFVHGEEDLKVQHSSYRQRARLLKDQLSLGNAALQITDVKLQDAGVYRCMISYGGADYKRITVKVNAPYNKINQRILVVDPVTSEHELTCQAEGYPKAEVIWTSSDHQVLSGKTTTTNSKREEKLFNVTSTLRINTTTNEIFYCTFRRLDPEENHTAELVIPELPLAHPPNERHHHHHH

B1: 23F11-H4L4 (antibody, V domains shown)
VH: QVQLVQSGAEVKKPGASVKLSCKASGYIFTTYWMHWVKQRPGQGLEWIGMIQPNSGGTKYNEKFKKKATLTVDKSISTAYMELSRLTSDDTAVYYCARGAGTVDYFDYWGQGSTLTVSS
VL: DIVLTQSPASLAVSVGQRATITCRASESVDIYGNSFMHWYQQKPGQPPKLLIYRASNLESGIPARFSGSGSRTDFTLTINPVEANDTATYYCQQSTEDPYTFGGGTKLEIK
notes: Human IgG1 constant region with N297A; biotinylated in the alanine-scan ELISA; also called 23F11-H4L4-bio; humanized 23F11
EC50 (read off the curve) [1]: ~1 ng/mL
Mean OD450 [2]: 1.25 OD450
OD450 nM of sample-1 [2]: 1.18 OD450
OD450 nM of sample-2 [2]: 1.33 OD450
% of binding of Ab to E58A mutant vs. that to WT PD-L1 [3]: 9.2%
Mean OD450 [3]: 0.116 OD450
OD450 nM of sample-1 [3]: 0.129 OD450
OD450 nM of sample-2 [3]: 0.103 OD450
Kd [4]: 65.4 nM
koff [4]: 0.0304 s⁻¹
kon [4]: 465000 M⁻¹ s⁻¹
binding signal at pH5 as percent of the signal at pH7.4 [5]: < 50%
binding signal at pH5.5 as percent of the signal at pH7.4 [5]: < 75%
EC50 (read off the curve) [6]: ~7 ng/mL
EC50 (read off the curve) [7]: ~0.01 µg/mL
IC50 (read off the curve) [8]: ~0.03 µg/mL
IC50 (read off the curve) [9]: ~0.03 µg/mL
EC50 [10]: 0.0305 µg/mL

B2: 21F11 (antibody, V domains shown)
VH: QVQLQQPGAELVKPGASVKLSCKASGYTFTSNWMHWVKQRPGQGLEWIGMMHPNSGSINYNEKFKNKATLTADKSSSTAYMQLSSLTSEDSAVYYCARSYYGSSPYYFDYWGQGTTLTVSS
VL: DIQMTQTTSSLSASLGDRVTISCRASQDISNYLNWYQQKPDGTVKLLIYYTSRLHSGVPSRFSGSGSGTDFSLTISNLEEEDIATYFCQQGDTLPWTFGGGTKLEIK
notes: Mouse monoclonal from hybridoma; also called mouse monoclonal antibody 21F11
binding result [11]: binds
IC50 (read off the curve) [12]: ~200 ng/mL
binding result [13]: no binding (tested: 20 ug/ml)
